In paper PMC4921775, “Transient Fcho1/2⋅Eps15/R⋅AP-2 Nanoclusters Prime the AP-2 Clathrin Adaptor for Cargo Binding” (Developmental Cell, 2016):
Blank lines part the entries; values can stand above or below the molecule they belong to. No end group written: not given here.

Assays:
[1] = target: AP-2 α-appendage appendage (UniProt P17426); conditions: cited from earlier work
[2] = target: T1, FCHO1 μHD S732D (Homo sapiens); assay: ITC
T1 chain: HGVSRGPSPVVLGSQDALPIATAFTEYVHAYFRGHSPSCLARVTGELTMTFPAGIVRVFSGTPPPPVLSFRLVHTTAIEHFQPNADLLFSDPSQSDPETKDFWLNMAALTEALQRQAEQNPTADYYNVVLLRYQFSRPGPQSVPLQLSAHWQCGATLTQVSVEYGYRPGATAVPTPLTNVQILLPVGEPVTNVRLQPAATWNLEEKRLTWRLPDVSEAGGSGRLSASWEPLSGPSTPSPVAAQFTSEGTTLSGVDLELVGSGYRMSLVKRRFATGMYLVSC

[3] = target: T2, FCHO1 μHD R872M (Homo sapiens); assay: ITC
T2 chain: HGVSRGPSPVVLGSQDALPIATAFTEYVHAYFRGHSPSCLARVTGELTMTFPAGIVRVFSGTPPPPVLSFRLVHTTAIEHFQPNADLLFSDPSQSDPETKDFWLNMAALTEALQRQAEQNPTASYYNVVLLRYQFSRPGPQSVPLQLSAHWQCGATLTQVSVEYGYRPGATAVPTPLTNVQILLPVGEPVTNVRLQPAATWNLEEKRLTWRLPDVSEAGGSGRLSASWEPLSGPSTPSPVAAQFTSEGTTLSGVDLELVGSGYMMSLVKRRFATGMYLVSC

[4] = target: T3, Danio rerio (Dr) Fcho1 μHD (Danio rerio (zebrafish)); assay: ITC
T3 chain: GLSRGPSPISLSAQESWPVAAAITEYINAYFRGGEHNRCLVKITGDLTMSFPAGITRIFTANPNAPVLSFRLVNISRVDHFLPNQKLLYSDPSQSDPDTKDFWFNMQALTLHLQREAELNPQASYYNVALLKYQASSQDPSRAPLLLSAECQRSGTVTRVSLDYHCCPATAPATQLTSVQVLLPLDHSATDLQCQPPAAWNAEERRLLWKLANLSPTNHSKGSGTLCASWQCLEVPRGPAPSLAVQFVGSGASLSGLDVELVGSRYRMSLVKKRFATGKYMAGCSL

[5] = target: T4, GST-FCHO1 μHD K877E + R879A (human, UniProt O14526 609-889, K877E | R879A); assay: pull-down; HeLa cell lysate with 250 μg (Figure 3F: the indicated amount) of GST or GST-μHD fusion proteins immobilised on glutathione-Sepharose; supernatant and pellet stained or immunoblotted; Figures 1G, 3E, 3F; conditions: one partner purified
T4 construct: also called K877E + R879A mutant; source: GST-fusion protein immobilised on glutathione-Sepharose; not shown: GST, N-terminal, kept
T4 sequence (looked up): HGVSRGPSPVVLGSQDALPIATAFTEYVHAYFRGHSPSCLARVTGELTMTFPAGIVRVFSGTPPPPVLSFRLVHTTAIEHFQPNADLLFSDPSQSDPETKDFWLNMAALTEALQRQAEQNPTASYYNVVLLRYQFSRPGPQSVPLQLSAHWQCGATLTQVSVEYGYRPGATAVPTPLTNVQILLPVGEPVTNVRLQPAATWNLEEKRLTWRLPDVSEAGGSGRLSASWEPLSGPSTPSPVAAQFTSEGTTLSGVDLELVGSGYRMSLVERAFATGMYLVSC

[6] = target: T5, FCHO1 μHD (purified, not on beads) (human, UniProt O14526 609-889); assay: pull-down; purified FCHO1 μHD with ~50 μg of GST or GST fusion protein in the presence of carrier BSA; stained or immunoblotted with an anti-FCHO1 monoclonal antibody; Figure 1D; conditions: both partners purified
T5 construct: human FCHO1 μ-homology domain (μHD); also called purified FCHO1 μHD; Hs FCHO1 μHD; source: purified
T5 sequence (looked up): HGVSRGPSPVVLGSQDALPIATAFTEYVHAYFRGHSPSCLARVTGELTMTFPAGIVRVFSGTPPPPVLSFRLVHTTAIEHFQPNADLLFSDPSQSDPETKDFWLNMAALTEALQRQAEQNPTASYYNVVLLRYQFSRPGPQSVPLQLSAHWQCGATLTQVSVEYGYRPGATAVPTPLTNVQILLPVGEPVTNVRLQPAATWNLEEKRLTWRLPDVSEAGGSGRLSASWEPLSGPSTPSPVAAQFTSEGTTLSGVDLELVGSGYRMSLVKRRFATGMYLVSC

[7] = target: T5, FCHO1 μHD (purified, not on beads); assay: ITC; repeated injection of EPS15 peptides into a temperature-controlled solution of μHD, Nano ITC instrument (TA Instruments); minimum of four runs; conditions: both partners purified
[8] = target: T6, FCHO1 μHD K877E + R879A (for ITC) (human, UniProt O14526 609-889, K877E | R879A); assay: as above; conditions: both partners purified
T6 sequence (looked up): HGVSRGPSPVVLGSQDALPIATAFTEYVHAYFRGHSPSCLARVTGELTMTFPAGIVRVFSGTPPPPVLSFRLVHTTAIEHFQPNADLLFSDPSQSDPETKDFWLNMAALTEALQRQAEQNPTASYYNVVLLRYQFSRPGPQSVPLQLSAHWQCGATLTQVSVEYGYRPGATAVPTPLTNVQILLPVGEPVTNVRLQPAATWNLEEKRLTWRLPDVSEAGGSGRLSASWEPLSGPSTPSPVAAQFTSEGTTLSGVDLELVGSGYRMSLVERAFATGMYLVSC

[9] = target: T7, FCHO1 μHD A629E (for ITC) (human, UniProt O14526 609-889, A629E); assay: as above; conditions: both partners purified
T7 sequence (looked up): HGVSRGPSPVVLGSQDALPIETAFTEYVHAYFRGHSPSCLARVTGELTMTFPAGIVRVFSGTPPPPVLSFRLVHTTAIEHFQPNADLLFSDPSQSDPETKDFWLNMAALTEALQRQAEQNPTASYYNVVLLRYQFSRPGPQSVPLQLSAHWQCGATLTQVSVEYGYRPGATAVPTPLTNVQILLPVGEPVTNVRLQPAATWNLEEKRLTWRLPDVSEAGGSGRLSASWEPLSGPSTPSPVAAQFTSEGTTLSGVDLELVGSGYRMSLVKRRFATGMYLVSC

[10] = target: T8, FCHO1 μHD P627D + A629E (for ITC) (human, UniProt O14526 609-889, P627D | A629E); assay: as above; conditions: both partners purified
T8 sequence (looked up): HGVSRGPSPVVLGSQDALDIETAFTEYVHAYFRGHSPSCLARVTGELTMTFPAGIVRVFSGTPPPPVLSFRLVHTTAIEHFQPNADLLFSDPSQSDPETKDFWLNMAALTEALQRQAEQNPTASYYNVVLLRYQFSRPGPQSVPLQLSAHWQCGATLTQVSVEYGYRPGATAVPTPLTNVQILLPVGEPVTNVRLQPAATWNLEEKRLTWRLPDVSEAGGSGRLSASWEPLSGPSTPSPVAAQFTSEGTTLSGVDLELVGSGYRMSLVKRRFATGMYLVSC

[11] = target: T9, FCHO1 μHD R872A+S874G (Homo sapiens); assay: ITC
T9 chain: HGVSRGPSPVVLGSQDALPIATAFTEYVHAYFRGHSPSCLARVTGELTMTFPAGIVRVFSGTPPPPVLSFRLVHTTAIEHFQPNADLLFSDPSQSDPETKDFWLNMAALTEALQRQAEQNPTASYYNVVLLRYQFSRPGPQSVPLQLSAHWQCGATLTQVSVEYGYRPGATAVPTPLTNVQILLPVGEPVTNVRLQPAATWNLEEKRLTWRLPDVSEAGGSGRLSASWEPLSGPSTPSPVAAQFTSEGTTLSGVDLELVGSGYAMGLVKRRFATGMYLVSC

AP-2 α-appendage appendage, sequence (P17426 740-977): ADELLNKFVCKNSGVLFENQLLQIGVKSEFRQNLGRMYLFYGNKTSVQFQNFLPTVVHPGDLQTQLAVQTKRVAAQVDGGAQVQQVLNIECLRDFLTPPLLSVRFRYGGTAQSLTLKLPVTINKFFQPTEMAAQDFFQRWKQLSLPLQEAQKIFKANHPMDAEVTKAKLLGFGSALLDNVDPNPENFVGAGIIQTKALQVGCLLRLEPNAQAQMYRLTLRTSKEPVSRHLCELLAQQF

Molecule: Eps15 DPF motif (from UniProt P42566)
Kd [1]: 200 µM

B1: EPS15 (epidermal growth factor pathway substrate 15) (natural protein, human (endogenous in HeLa), UniProt P42566 1-896, looked up)
chain: MAAAAQLSLTQLSSGNPVYEKYYRQVDTGNTGRVLASDAAAFLKKSGLPDLILGKIWDLADTDGKGILNKQEFFVALRLVACAQNGLEVSLSSLNLAVPPPRFHDTSSPLLISGTSAAELPWAVKPEDKAKYDAIFDSLSPVNGFLSGDKVKPVLLNSKLPVDILGRVWELSDIDHDGMLDRDEFAVAMFLVYCALEKEPVPMSLPPALVPPSKRKTWVVSPAEKAKYDEIFLKTDKDMDGFVSGLEVREIFLKTGLPSTLLAHIWSLCDTKDCGKLSKDQFALAFHLISQKLIKGIDPPHVLTPEMIPPSDRASLQKNIIGSSPVADFSAIKELDTLNNEIVDLQREKNNVEQDLKEKEDTIKQRTSEVQDLQDEVQRENTNLQKLQAQKQQVQELLDELDEQKAQLEEQLKEVRKKCAEEAQLISSLKAELTSQESQISTYEEELAKAREELSRLQQETAELEESVESGKAQLEPLQQHLQDSQQEISSMQMKLMEMKDLENHNSQLNWCSSPHSILVNGATDYCSLSTSSSETANLNEHVEGQSNLESEPIHQESPARSSPELLPSGVTDENEVTTAVTEKVCSELDNNRHSKEEDPFNVDSSSLTGPVADTNLDFFQSDPFVGSDPFKDDPFGKIDPFGGDPFKGSDPFASDCFFRQSTDPFATSSTDPFSAANNSSITSVETLKHNDPFAPGGTVVAASDSATDPFASVFGNESFGGGFADFSTLSKVNNEDPFRSATSSSVSNVVITKNVFEETSVKSEDEPPALPPKIGTPTRPCPLPPGKRSINKLDSPDPFKLNDPFQPFPGNDSPKEKDPEIFCDPFTSATTTTNKEADPSNFANFSAYPSEEDMIEWAKRESEREEEQRLARLNQQEQEDLELAIALSKSEISEA
notes: human EPS15, endogenous protein; also called native EPS15 dimer/tetramer
fold reduction of recovery against the wild-type μHD [5]: ≥ 25 fold

B2: GST-EPS15 (615–636) (peptide)
chain: {GST}-TNLDFFQSDPFVGSDPFKDDPF
notes: source: GST-fusion protein immobilised on glutathione-Sepharose; not shown: GST, N-terminal, kept
binding result [6]: binds

Second part, the molecule after the results:

Kd [2]: 9.1 µM
Kd [3]: 19.6 µM
Kd [4]: 8.1 µM
Molecule: NLDFFQSDPFVGSDPFKDDPFGK [EPS15 616–638 peptide, listing 1 of 2 here]

Kd [7]: 2700 nM
Kd [8]: > 300 µM
Kd [9]: > 300 µM
Kd [10]: > 300 µM
Molecule: NLDFFQSDPFVGSDPFKDDPFGK (peptide, UniProt P42566 616-638, looked up)

Kd [11]: 77.4 µM
Molecule: NLDFFQSDPFVGSDPFKDDPFGK [EPS15 616–638 peptide, listing 2 of 2 here]
